Results from patent publication US20130005646A1 (Novo Nordisk, published 2013).
Starred links: 1 amine or outer side, 2 acyl side, 3 side chain; linkers in the order of their positions; H or OH if unused. Positions of bridges follow the written chain, without caps; N, C: chain ends. Groups on a side chain read outwards from the residue. No end group written: not given here. *: point of attachment. C20 diacid = O=C(O)CCCCCCCCCCCCCCCCCCC(=O)*; C18 diacid = O=C(O)CCCCCCCCCCCCCCCCC(=O)*; γGlu = O=C(O)[C@H](CCC(=O)[*:2])N[*:1]; AEEA = NCCOCCOCC(=O)O

T1: human amylin 3(a) receptor (human calcitonin receptor + RAMP-3) (human, UniProt P30988 25-474; O60896 24-148)
T1 sequence (looked up) 1: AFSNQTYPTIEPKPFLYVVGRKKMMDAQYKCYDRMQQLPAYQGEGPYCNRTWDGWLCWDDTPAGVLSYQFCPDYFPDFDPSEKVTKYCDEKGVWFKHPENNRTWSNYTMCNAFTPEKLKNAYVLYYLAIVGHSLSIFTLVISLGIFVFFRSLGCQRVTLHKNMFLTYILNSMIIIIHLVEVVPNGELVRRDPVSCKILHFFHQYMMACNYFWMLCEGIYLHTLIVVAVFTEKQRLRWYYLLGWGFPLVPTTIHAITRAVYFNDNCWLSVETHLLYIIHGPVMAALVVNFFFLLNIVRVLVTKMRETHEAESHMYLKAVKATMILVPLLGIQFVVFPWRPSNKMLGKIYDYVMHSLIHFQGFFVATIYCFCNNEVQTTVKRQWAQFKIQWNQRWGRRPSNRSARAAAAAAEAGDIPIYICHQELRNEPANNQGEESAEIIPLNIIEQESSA
T1 sequence (looked up) 2: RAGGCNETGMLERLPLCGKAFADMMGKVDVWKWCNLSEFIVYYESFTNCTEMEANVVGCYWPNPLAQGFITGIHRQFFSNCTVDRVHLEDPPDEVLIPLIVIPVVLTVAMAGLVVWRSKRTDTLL

T2: human calcitonin (a) receptor (human, UniProt P30988 25-474)
T2 sequence (looked up): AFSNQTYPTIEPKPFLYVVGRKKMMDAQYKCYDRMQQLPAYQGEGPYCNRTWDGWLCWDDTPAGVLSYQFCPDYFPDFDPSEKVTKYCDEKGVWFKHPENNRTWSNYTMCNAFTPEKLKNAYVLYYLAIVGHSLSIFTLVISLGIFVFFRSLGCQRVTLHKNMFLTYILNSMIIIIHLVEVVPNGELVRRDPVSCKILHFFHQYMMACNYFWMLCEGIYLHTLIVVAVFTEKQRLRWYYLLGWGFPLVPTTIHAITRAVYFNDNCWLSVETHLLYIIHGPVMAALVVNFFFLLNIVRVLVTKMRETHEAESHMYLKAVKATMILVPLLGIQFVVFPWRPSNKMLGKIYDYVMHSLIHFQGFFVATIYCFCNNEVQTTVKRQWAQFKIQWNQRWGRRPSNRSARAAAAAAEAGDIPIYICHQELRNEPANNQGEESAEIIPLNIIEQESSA


Legend:
[1] = biological target: T1, human amylin 3(a) receptor (human …); assay: cell-based or functional assay
[2] = biological target: T2, human calcitonin (a) receptor; assay: cell-based or functional assay

| Binder | Amylin receptor human EC50 [1] [nM] | CTa receptor human EC50 [2] [nM] |
| --- | --- | --- |
| {C20 diacid-γGlu}-KCNTATCATQRLAEFLHRSSNNFGPILPPTNVGSHTY-NH2 (disulfide 2-7; SMILES CC[C@H](C)[C@H](NC(=O)[C@@H]1CCCN1C(=O)CNC(=O)[C@H](Cc1ccccc1)NC(=O)[C@H](CC(N)=O)NC(=O)[C@H](CC(N)=O)NC(=O)[C@H](CO)NC(=O)[C@H](CO)NC(=O)[C@H](CCCNC(=N)N)NC(=O)[C@H](Cc1c[nH]cn1)NC(=O)[C@H](CC(C)C)NC(=O)[C@H](Cc1ccccc1)NC(=O)[C@H](CCC(=O)O)NC(=O)[C@H](C)NC(=O)[C@H](CC(C)C)NC(=O)[C@H](CCCNC(=N)N)NC(=O)[C@H](CCC(N)=O)NC(=O)[C@@H](NC(=O)[C@H](C)NC(=O)[C@@H]1CSSC[C@H](NC(=O)[C@H](CCCCN)NC(=O)CC[C@H](NC(=O)CCCCCCCCCCCCCCCCCCC(=O)O)C(=O)O)C(=O)N[C@@H](CC(N)=O)C(=O)N[C@@H]([C@@H](C)O)C(=O)N[C@@H](C)C(=O)N[C@@H]([C@@H](C)O)C(=O)N1)[C@@H](C)O)C(=O)N[C@@H](CC(C)C)C(=O)N1CCC[C@H]1C(=O)N1CCC[C@H]1C(=O)N[C@H](C(=O)N[C@@H](CC(N)=O)C(=O)N[C@H](C(=O)NCC(=O)N[C@@H](CO)C(=O)N[C@@H](Cc1c[nH]cn1)C(=O)N[C@H](C(=O)N[C@@H](Cc1ccc(O)cc1)C(N)=O)[C@@H](C)O)C(C)C)[C@@H](C)O) [N-alpha-[(S)-4-Carboxy-4-(19-carboxynonadecanoylamino)butyryl]-[Glu14,His17,Arg18,His35]-pramlintide] | 0.0685 | 0.0965 |
| {C20 diacid-γGlu}-CNTATCATQRLAEFLHHSSNNFGPILPPTNVGSHTY-NH2 (disulfide 1-6; SMILES CC[C@H](C)[C@H](NC(=O)[C@@H]1CCCN1C(=O)CNC(=O)[C@H](Cc1ccccc1)NC(=O)[C@H](CC(N)=O)NC(=O)[C@H](CC(N)=O)NC(=O)[C@H](CO)NC(=O)[C@H](CO)NC(=O)[C@H](Cc1c[nH]cn1)NC(=O)[C@H](Cc1c[nH]cn1)NC(=O)[C@H](CC(C)C)NC(=O)[C@H](Cc1ccccc1)NC(=O)[C@H](CCC(=O)O)NC(=O)[C@H](C)NC(=O)[C@H](CC(C)C)NC(=O)[C@H](CCCNC(=N)N)NC(=O)[C@H](CCC(N)=O)NC(=O)[C@@H](NC(=O)[C@H](C)NC(=O)[C@@H]1CSSC[C@H](NC(=O)CC[C@H](NC(=O)CCCCCCCCCCCCCCCCCCC(=O)O)C(=O)O)C(=O)N[C@@H](CC(N)=O)C(=O)N[C@@H]([C@@H](C)O)C(=O)N[C@@H](C)C(=O)N[C@@H]([C@@H](C)O)C(=O)N1)[C@@H](C)O)C(=O)N[C@@H](CC(C)C)C(=O)N1CCC[C@H]1C(=O)N1CCC[C@H]1C(=O)N[C@H](C(=O)N[C@@H](CC(N)=O)C(=O)N[C@H](C(=O)NCC(=O)N[C@@H](CO)C(=O)N[C@@H](Cc1c[nH]cn1)C(=O)N[C@H](C(=O)N[C@@H](Cc1ccc(O)cc1)C(N)=O)[C@@H](C)O)C(C)C)[C@@H](C)O) [N-alpha-[(S)-4-Carboxy-4-(19-carboxynonadecanoylamino)butyryl]-[des1,Glu14,His17,His35]-pramlintide] | 0.365 | 0.286 |
| {C20 diacid-γGlu}-GKCNTATCATQRLAEFLHHSSNNFGPILPPTNVGSHTY-NH2 (disulfide 3-8; SMILES CC[C@H](C)[C@H](NC(=O)[C@@H]1CCCN1C(=O)CNC(=O)[C@H](Cc1ccccc1)NC(=O)[C@H](CC(N)=O)NC(=O)[C@H](CC(N)=O)NC(=O)[C@H](CO)NC(=O)[C@H](CO)NC(=O)[C@H](Cc1c[nH]cn1)NC(=O)[C@H](Cc1c[nH]cn1)NC(=O)[C@H](CC(C)C)NC(=O)[C@H](Cc1ccccc1)NC(=O)[C@H](CCC(=O)O)NC(=O)[C@H](C)NC(=O)[C@H](CC(C)C)NC(=O)[C@H](CCCNC(=N)N)NC(=O)[C@H](CCC(N)=O)NC(=O)[C@@H](NC(=O)[C@H](C)NC(=O)[C@@H]1CSSC[C@H](NC(=O)[C@H](CCCCN)NC(=O)CNC(=O)CC[C@H](NC(=O)CCCCCCCCCCCCCCCCCCC(=O)O)C(=O)O)C(=O)N[C@@H](CC(N)=O)C(=O)N[C@@H]([C@@H](C)O)C(=O)N[C@@H](C)C(=O)N[C@@H]([C@@H](C)O)C(=O)N1)[C@@H](C)O)C(=O)N[C@@H](CC(C)C)C(=O)N1CCC[C@H]1C(=O)N1CCC[C@H]1C(=O)N[C@H](C(=O)N[C@@H](CC(N)=O)C(=O)N[C@H](C(=O)NCC(=O)N[C@@H](CO)C(=O)N[C@@H](Cc1c[nH]cn1)C(=O)N[C@H](C(=O)N[C@@H](Cc1ccc(O)cc1)C(N)=O)[C@@H](C)O)C(C)C)[C@@H](C)O) [N-alpha-[(S)-4-Carboxy-4-(19-carboxynonadecanoylamino)butyryl]-Gly-[Glu14,His17,His35]-pramlintide] | 0.0955 | 0.0705 |
| {C20 diacid-γGlu}-HCNTATCATQRLAEFLHRSSNNFGPILPPTNVGSHTY-NH2 (disulfide 2-7; SMILES CC[C@H](C)[C@H](NC(=O)[C@@H]1CCCN1C(=O)CNC(=O)[C@H](Cc1ccccc1)NC(=O)[C@H](CC(N)=O)NC(=O)[C@H](CC(N)=O)NC(=O)[C@H](CO)NC(=O)[C@H](CO)NC(=O)[C@H](CCCNC(=N)N)NC(=O)[C@H](Cc1c[nH]cn1)NC(=O)[C@H](CC(C)C)NC(=O)[C@H](Cc1ccccc1)NC(=O)[C@H](CCC(=O)O)NC(=O)[C@H](C)NC(=O)[C@H](CC(C)C)NC(=O)[C@H](CCCNC(=N)N)NC(=O)[C@H](CCC(N)=O)NC(=O)[C@@H](NC(=O)[C@H](C)NC(=O)[C@@H]1CSSC[C@H](NC(=O)[C@H](Cc2c[nH]cn2)NC(=O)CC[C@H](NC(=O)CCCCCCCCCCCCCCCCCCC(=O)O)C(=O)O)C(=O)N[C@@H](CC(N)=O)C(=O)N[C@@H]([C@@H](C)O)C(=O)N[C@@H](C)C(=O)N[C@@H]([C@@H](C)O)C(=O)N1)[C@@H](C)O)C(=O)N[C@@H](CC(C)C)C(=O)N1CCC[C@H]1C(=O)N1CCC[C@H]1C(=O)N[C@H](C(=O)N[C@@H](CC(N)=O)C(=O)N[C@H](C(=O)NCC(=O)N[C@@H](CO)C(=O)N[C@@H](Cc1c[nH]cn1)C(=O)N[C@H](C(=O)N[C@@H](Cc1ccc(O)cc1)C(N)=O)[C@@H](C)O)C(C)C)[C@@H](C)O) | 0.066 | 0.11 |
| {C18 diacid-γGlu-AEEA-AEEA}-ECNTATCATQRLAEFLHHSSNNFGPILPPTNVGSNTP-NH2 (disulfide 2-7; SMILES CC[C@H](C)[C@H](NC(=O)[C@@H]1CCCN1C(=O)CNC(=O)[C@H](Cc1ccccc1)NC(=O)[C@H](CC(N)=O)NC(=O)[C@H](CC(N)=O)NC(=O)[C@H](CO)NC(=O)[C@H](CO)NC(=O)[C@H](Cc1c[nH]cn1)NC(=O)[C@H](Cc1c[nH]cn1)NC(=O)[C@H](CC(C)C)NC(=O)[C@H](Cc1ccccc1)NC(=O)[C@H](CCC(=O)O)NC(=O)[C@H](C)NC(=O)[C@H](CC(C)C)NC(=O)[C@H](CCCNC(=N)N)NC(=O)[C@H](CCC(N)=O)NC(=O)[C@@H](NC(=O)[C@H](C)NC(=O)[C@@H]1CSSC[C@H](NC(=O)[C@H](CCC(=O)O)NC(=O)COCCOCCNC(=O)COCCOCCNC(=O)CC[C@H](NC(=O)CCCCCCCCCCCCCCCCC(=O)O)C(=O)O)C(=O)N[C@@H](CC(N)=O)C(=O)N[C@@H]([C@@H](C)O)C(=O)N[C@@H](C)C(=O)N[C@@H]([C@@H](C)O)C(=O)N1)[C@@H](C)O)C(=O)N[C@@H](CC(C)C)C(=O)N1CCC[C@H]1C(=O)N1CCC[C@H]1C(=O)N[C@H](C(=O)N[C@@H](CC(N)=O)C(=O)N[C@H](C(=O)NCC(=O)N[C@@H](CO)C(=O)N[C@@H](CC(N)=O)C(=O)N[C@H](C(=O)N1CCC[C@H]1C(N)=O)[C@@H](C)O)C(C)C)[C@@H](C)O) | 0.108 | 0.288 |
| KCNTATCATQRLAEFLK([AEEA-AEEA-γGlu-C18 diacid])HSSNNFGPILPPTNVGSNTY-NH2 (disulfide 2-7; N-terminus assumed; SMILES CC[C@H](C)[C@H](NC(=O)[C@@H]1CCCN1C(=O)CNC(=O)[C@H](Cc1ccccc1)NC(=O)[C@H](CC(N)=O)NC(=O)[C@H](CC(N)=O)NC(=O)[C@H](CO)NC(=O)[C@H](CO)NC(=O)[C@H](Cc1c[nH]cn1)NC(=O)[C@H](CCCCNC(=O)COCCOCCNC(=O)COCCOCCNC(=O)CC[C@H](NC(=O)CCCCCCCCCCCCCCCCC(=O)O)C(=O)O)NC(=O)[C@H](CC(C)C)NC(=O)[C@H](Cc1ccccc1)NC(=O)[C@H](CCC(=O)O)NC(=O)[C@H](C)NC(=O)[C@H](CC(C)C)NC(=O)[C@H](CCCNC(=N)N)NC(=O)[C@H](CCC(N)=O)NC(=O)[C@@H](NC(=O)[C@H](C)NC(=O)[C@@H]1CSSC[C@H](NC(=O)[C@@H](N)CCCCN)C(=O)N[C@@H](CC(N)=O)C(=O)N[C@@H]([C@@H](C)O)C(=O)N[C@@H](C)C(=O)N[C@@H]([C@@H](C)O)C(=O)N1)[C@@H](C)O)C(=O)N[C@@H](CC(C)C)C(=O)N1CCC[C@H]1C(=O)N1CCC[C@H]1C(=O)N[C@H](C(=O)N[C@@H](CC(N)=O)C(=O)N[C@H](C(=O)NCC(=O)N[C@@H](CO)C(=O)N[C@@H](CC(N)=O)C(=O)N[C@H](C(=O)N[C@@H](Cc1ccc(O)cc1)C(N)=O)[C@@H](C)O)C(C)C)[C@@H](C)O) | 0.456 | 4.3 |
